Data reported in the DeepSol protein solubility set.

Test: soluble on expression in E. coli; label from the status in PepcDB or PDB records
With “MSDMYDKINELYDRRREIELGGGDEKIEQQHAKGKLTARERIDLLLDEGTFVELNPFIEHRCTDFGLGEKKGPGDGVVTGYGKINGRTVFVFSQDFTVFGGALGEMHAKKITNIMDLAAKTGAPVIGLNDSGGARIQEGVLSLDGYGHIFYRNAIYSGVIPQISVIMGPCAGGAVYSPAITDFVFMVEKTSQMFITGPKVIEAVTGEKISAEDLGGARVHNTISGNAHFAAANEEEALAEVRRLLGYLPSNNNEKPPFGPIPDGDDYRPDLADVVPIDAVRPYDVRHVIAQVVDDGSFMEVQKDFAKNIVIGFARIKGEVVGLVCNQPKFMAGGLDIDSSDKAARFIRFCDSFNIPIITFEDVTGFFPGVKQEHGGIIRHGAKILYAYSEATVPKITVILRKAYGGAYVALNSKSIGADVVYAWPNAEVAVMGPQGAANIIFAGEIEKSPNPEETRAQKIAEYREKFANPYVAAKYGMIDDVIDPRDTRIKLIQALEMLRNKHEERPKKKHGNIPL” the “soluble on expression in E. coli” value was “not soluble”.
In the case of “MSDNNTLRMAEMLDKQNSRQHDFMKLMMEMNNSARLSDQARDDRNAIRNENNLKEVFNKLIEAQKEESPIDISIKIRR”, the “soluble on expression in E. coli” value is reported as “not soluble”.
With “MSDPKQKSDDLPEQVEQPEQGGGNDGQEEDVQMAEVSEQELERVRTLLHRDWMYSFTPERVRRYHLNRSDYLNEEIRHSQRAIRNALLGYKHASNSRKTCRTDLLDTTWILENLELVGRQLPRESSSQGNPNQESVQELHRQICQLFEDDALAVCERGHNQEVALDLASQVIATHMRTIREFQEEYFKVTGKKHELKKLEDNAYGVLLTPSPKRMPKNFQRRRSDGDDDDDGPGNWGNLNPVAPV” the “soluble on expression in E. coli” value was “soluble”.
In the case of “MSDPRDLMSEFQKLRVETSKIQNEFKEKPGYVEDKLHKNTQEICQQILKKQGKSQKSQENQNAFIENLMSELKTAKSKLNETENQISDLHEATKQQESQANLWNDLVAKISDKNLEMMLKIQKSQDLMIMKMQEGSAVQDVPIETEKSAKNGPFFEILVIWTDSRGPVVPGNHGKLRVCGSDTIRQIKPRINSLAGIDTISFRTFCDDKFLEDDHTLAHYNIREGSTICVFFH”, the “soluble on expression in E. coli” value is reported as “not soluble”.
For “MSDPYMPLTSVRSGAGFEAAKGVHGLTVQIANVYFIQLPSEPHSFVLIDAGMPQSAGVIVNEAKQRFGEGFQLKAIILTHGHFDHIGAIEEILEHWDVPVYIHSREMPYVTGKEDYPPARPDSKSGLVAKLSPLFPRHSIDISSHVQALPEDGSVPFLDEWMWIATPGHTPGHISLFRDDGRVLVAGDAVITVEQEKMADVLIQKQELHGPPAYFTPDTETAAESILKLAGLEPEALLTGHGIPMTGKNFRSDLTELANRLSSILEHHHHHH”, the “soluble on expression in E. coli” value was “soluble”.
For “MSDQLQMTDGMHIIVEALKQNNIDTIYGVVGIPVTDMARHAQAEGIRYIGFRHEQSAGYAAAASGFLTQKPGICLTVSAPGFLNGLTALANATVNGFPMIMISGSSDRAIVDLQQGDYEELDQMNAAKPYAKAAFRVNQPQDLGIALARAIRVSVSGRPGGVYLDLPANVLAATMEKDEALTTIVKVENPSPALLPCPKSVTSAISLLAKAERPLIILGKGAAYSQADEQLREFIESAQIPFLPMSMAKGILEDTHPLSAAAARSFALANADVVMLVGARLNWLLAHGKKGWAADTQFIQLDIEPQEIDSNRPIAVPVVGDIASSMQGMLAELKQNTFTTPLVWRDILNIHKQQNAQKMHEKLSTDTQPLNYFNALSAVRDVLRENQDIYLVNEGANTLDNARNIIDMYKPRRRLDCGTWGVMGIGMGYAIGASVTSGSPVVAIEGDSAFGFSGMEIETICRYNLPVTIVIFNNGGIYRGDGVDLSGAGAPSPTDLLHHARYDKLMDAFRGVGYNVTTTDELRHALTTGIQSRKPTIINVVIDPAAGTESGHITKLNPKQVAGN”, the “soluble on expression in E. coli” value was “soluble”.
In the case of “MSDSDSVGESSHPKKTAPKKEKASPKNKKDDANESMVMTEEDRNVFTSIDKKGGGSKQMAIVDIYQKKSQLEHILLRPDSYIGSIEHTEKKPMWVYNMEDSKLEQRDISYVPGLFKIYDEILVNAADNKQRDRKMNTIRVTINKAKNEISVYNNGKGIPVTQHKVEKVFVPELIFGSLLTSSNFVGNQKAMIGGRNGYGAKLCNIFSTKFTCETSSRVYKSAFKQTWINNMTRDEEPTIVPSTDEDFTKITFSPDLAKFKMKELDDDICHLMARRAYDVAATCKGVDVILNGEMISVKGFEDYVKMYTSQITFEGEPLKTVYEQIGNRWQVALALSDVGFQQISFANNVSTTKGGRHVDHVVDQMIARLKGSIKQELSKDVDPFMIENHLWVFVNCLIEWPTFDSQTKEMMTLRHDRFGSTCALSKKFCKTALQIGLIRQISREIGVDIRENLVQKASESSPIKCIPKLEDAKEAGTKTSERCTLIVTEGDSAKTLAISGLSVVGRDKFGVFPLRGKLLNVRDASVKQIAENAEVNAMIKILGLQRDLKYEFDDEFRTLRYGKLMIMADQDQDGSHIKGLIISFLHHFWPSLIQRNFVEEFITPIVKATKGKEEVSFYSLPEYSEWRTNTDNWKSYKIKYYKGLGTSTAKEAKE”, the “soluble on expression in E. coli” value is reported as “not soluble”.
For “MSDSGRADALLAQLPREGRGRLKVFLGAAPGVGKTYAMLQAAHAQLRQGVRVMAGVVETHGRAETEALLNGLPQQPLLRTEYRGMTLEEMDLDALLKAAPSLVLVDELAHTNAPGSRHTKRWQDIQELLAAGIDVYTTVNVQHLESLNDQVRGITGVQVRETLPDWVLQEAFDLVLIDLPPRELLERLRDGKVYVPEQARAAIDAFFTQTNLTALREMAMQTAAAQV”, the “soluble on expression in E. coli” value was “not soluble”.
With “MSDTHGKFIWVELMTPDMEAAARFYGHVVGWQTKDFGSPEMPYLVLEADGKGMGGVMELTEEHKGQGIPPNWTAYVDVDDVDATAKLFADKGGAIRRPPQDIPEIGRFAVVADPYGAVLCIMTPLPMETGGFPEDMQEKKGHVGWYELFTDNVDEAMAFYGEVFGWTKDHDFDMGEMGPYRIFAHKGKAVGGIMKRMPQVPVCHWGYYFNVDGIEDAITRVSTGGGKVVNGPMEVPGESWIVNCVDPQGAYFSLVSQKK” the “soluble on expression in E. coli” value was “not soluble”.
For “MSDTPSKKQKRRATIFVTGPQSKKTIFEGEEIKEEGNQTTLQDLAIARQRLHNELAVVNTTSGIEILMQIVMDELEVVRHRLRENGQRMRNFFGDGAVQIRAILIRIFSKSISSRNMLEYKKDAKVILNELCDQNITYKMPRYTLNDMEEILLTDDLEDGVIQRRSEKWECLPERQKPMFDEDEDAFCEFRKMNVPMSMTFDDDDEDRLSMPSTRTGVTALTTEDQMAAIQNQLAMLSKQLMCLQKSGVETKRASSRASSRRGGIIAKKASLEISSNSSSDVSEDEGKGPSVCSPSSSSKTSTASVQLAPMCMAPPPPPPPPLPKMSQKIPLSEIKSDNKLSTVTPSKPAEKKSSPKSLPPAETIVSNRPYLTDIAHGRSMLKKTVRSPGGSPACQVRHQKRPVSSFEAALRDRFRGFHGDASFSEQEENGEDDDLSATWDE”, the “soluble on expression in E. coli” value was “not soluble”.
In the case of “MSDTVVASAAVQAPAKTVKSPKAAKTTKVPKAKKPVAHPPYINMVTAAINGLKERKGSSKIAILKYITKNYNVGDQIIKINARLRDTLNKGVVSKALVQSVGTGASGRFRVTEKKAAAAKKPVAKKAATGEKKAKKPVAQKAATGEKKAKKTTATKTKKTADKVKKVKSPKKIAKPTAKKVAKSPAKKSAPKKAAAAKPAKKAVAPKT”, the “soluble on expression in E. coli” value is reported as “soluble”.
With “MSDVTVVNCPTCGKPVVWGEISPFRPFCSKRCQLIDLGEWAAEEKRIASSGDQSDSDDWSEER” the “soluble on expression in E. coli” value was “not soluble”.
In the case of “MSEAETGEPNGFRSCYDKLRKAVGNIPMDASKSTKLHNLSSRKISEILPNLYLSGRTVSQNSELLKEKNITTVINVSDREVVNYKNNQKFIKNYRFYAMSDTASAKFDGIIEEAVRIIHDSRSKEEGVLVHCFLGVSRSATLVAFYLISALSINWRDAVDFIHHRRFSANPNFGFLHQLKVYSTTKAKEFRNQLISERCLRMRESDKDIIKKYLPLAVFEL”, the “soluble on expression in E. coli” value is reported as “not soluble”.
For “MSEEAQPITLEAFAEAIRELPLSAVYAKVSEIRNSIAHLRRSNSELKAFIDETCESESDKRELEGYIAENEGVIATMNDRIGLLKTEIESRGERWIEEEIEANIKVDGDEVSTSQPIINGTAGDERPRAHEDATRRPEDRQTNEEEGVYL”, the “soluble on expression in E. coli” value was “not soluble”.
For “MSEEVGAKRWYAVHTYSGYENKVKKNLEKRVESMNMTEQIFRVVIPEEEETQVKDGKAKTTVKKTFPGYVLVELIMTDESWYVVRNTPGVTGFVGSAGAGSKPNPLLPEEVRFILKQMGLKEKTIDVELEVGEQVRIKSGPFANQVGEVQEIETDKFKLTVLVDMFGRETPVEVEFDQIEKL”, the “soluble on expression in E. coli” value was “not soluble”.
